Data taken from paper PMC5027247, “Structural insights into the interaction and disease mechanism of neurodegenerative disease-associated optineurin and TBK1 proteins” (Nature Communications, 2016).
One block for each binder: values may come before it.

B5: TBK1 CTD (residues 677–729) (domain or fragment, human, UniProt Q9UHD2 677-729, looked up)
chain: YPSSNTLVEMTLGMKKLKEEMEGVVKELAENNHILERFGSLTMDGGLRNVDCL
notes: For the crystal with NAP1 TBD it was made as a NAP1(215–254)-TEV site-TBK1 CTD fusion that was cut with 3C and TEV; not shown: Trx-His6 (pET-32M) or GST (pET-GST), N-terminal, cleaved
B7: TBK1 CTD(E696K) (domain or fragment, human, UniProt Q9UHD2 677-729, looked up)
chain: YPSSNTLVEMTLGMKKLKEKMEGVVKELAENNHILERFGSLTMDGGLRNVDCL
notes: also called TBK1 E696K mutant; not shown: Trx-His6 (pET-32M) or GST (pET-GST), N-terminal, cleaved

Assays:
[1] = target: the molecule itself; experiment: crystal structure; OPTN(26–103) or OPTN(26–103) E50K with TBK1 CTD; 0.1 M MES pH 6.0, 14% PEG 4000, 16 °C; 2.05 Å and 2.5 Å
[2] = target: the molecule itself; experiment: SEC-MALS; 100 μl at 20 μM on Superose 12 10/300 GL; 50 mM Tris-HCl, 100 mM NaCl, 1 mM DTT, 1 mM EDTA, pH 7.5
[3] = target: T1, GST-tagged OPTN(26–119) M44Q (human, UniProt Q96CV9 26-119, M44Q); experiment: pull-down; GST-tagged OPTN and Trx-His-tagged TBK1 mixed at 1:4, glutathione sepharose 4B beads; 50 mM Tris pH 7.5, 100 mM NaCl, 1 mM DTT, 1 mM EDTA; Coomassie or anti-His blot; settings: both partners purified
T1 construct: source: E. coli BL21 (DE3), purified (glutathione sepharose 4B, size-exclusion chromatography); not shown: GST, N-terminal, kept

[4] = target: T2, GST-tagged OPTN(26–119) L47Q (human, UniProt Q96CV9 26-119, L47Q); experiment: as above; settings: both partners purified
T2 construct: source: E. coli BL21 (DE3), purified (glutathione sepharose 4B, size-exclusion chromatography); not shown: GST, N-terminal, kept

[5] = target: T3, GST-tagged OPTN(26–119) L54Q (human, UniProt Q96CV9 26-119, L54Q); experiment: as above; settings: both partners purified
T3 construct: source: E. coli BL21 (DE3), purified (glutathione sepharose 4B, size-exclusion chromatography); not shown: GST, N-terminal, kept

[6] = target: T4, OPTN(26–119) (human, UniProt Q96CV9 26-119); experiment: ITC; 25 °C; 50 mM Tris pH 7.5, 100 mM NaCl, 1 mM EDTA, 1 mM DTT; 1 mM TBK1 fragment in the syringe, 0.1 mM OPTN or NAP1 fragment in the cell; one-site binding model; settings: both partners purified
T4 construct: A Se-Met labelled form was used for the 2.5 Å crystal structure with TBK1 CTD; also called OPTN NTD; not shown: Trx-His6 (pET-32M) or GST (pET-GST), N-terminal, cleaved

[7] = target: T5, OPTN(26–119) E50K (human, UniProt Q96CV9 26-119, E50K); experiment: as above; settings: both partners purified
T5 construct: also called OPTN E50K mutant; not shown: Trx-His6 (pET-32M) or GST (pET-GST), N-terminal, cleaved

[8] = target: T6, OPTN(1–119) (human, UniProt Q96CV9 1-119); experiment: as above; settings: both partners purified
T6 construct: not shown: Trx-His6 (pET-32M) or GST (pET-GST), N-terminal, cleaved

[9] = target: the molecule itself; experiment: crystal structure; NAP1 TBD/TBK1 CTD complex made as a fusion through a TEV site and cut with 3C and TEV; 1% tryptone, 0.05 M HEPES pH 7.0, 12% PEG 3350, 16 °C; 1.5 Å
[10] = target: B7; experiment: ITC; 25 °C; 50 mM Tris pH 7.5, 100 mM NaCl, 1 mM EDTA, 1 mM DTT; 1 mM TBK1 fragment in the syringe, 0.1 mM OPTN or NAP1 fragment in the cell; one-site binding model; settings: both partners purified
[11] = target: B5; experiment: as above; settings: both partners purified

T6 sequence (Q96CV9 1-119): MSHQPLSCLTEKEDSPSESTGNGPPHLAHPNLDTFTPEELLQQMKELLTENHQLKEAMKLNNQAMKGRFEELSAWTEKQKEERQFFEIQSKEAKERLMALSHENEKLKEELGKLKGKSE

B1: OPTN(26–103) (domain or fragment, human, UniProt Q96CV9 26-103, looked up)
chain: HLAHPNLDTFTPEELLQQMKELLTENHQLKEAMKLNNQAMKGRFEELSAWTEKQKEERQFFEIQSKEAKERLMALSHE
notes: Forms a dimer in the crystal of the complex with TBK1 CTD; also called short OPTN fragment; not shown: Trx-His6 (pET-32M) or GST (pET-GST), N-terminal, cleaved
- binding result [1]: binds

B2: OPTN(26–103) E50K (domain or fragment, human, UniProt Q96CV9 26-103, looked up)
chain: HLAHPNLDTFTPEELLQQMKELLTKNHQLKEAMKLNNQAMKGRFEELSAWTEKQKEERQFFEIQSKEAKERLMALSHE
notes: not shown: Trx-His6 (pET-32M) or GST (pET-GST), N-terminal, cleaved
- binding result [1]: binds

B3: OPTN(1–119) E50K mutant (domain or fragment, human, UniProt Q96CV9 1-119, looked up)
chain: MSHQPLSCLTEKEDSPSESTGNGPPHLAHPNLDTFTPEELLQQMKELLTKNHQLKEAMKLNNQAMKGRFEELSAWTEKQKEERQFFEIQSKEAKERLMALSHENEKLKEELGKLKGKSE
notes: as for B2
- stoichiometry N [2]: 4

- binding result [3]: binds
- binding result [4]: binds
- binding result [5]: binds
B4: Trx-His-tagged TBK1 CTD (residues 677–729) (domain or fragment, human, UniProt Q9UHD2 677-729, looked up)
chain: YPSSNTLVEMTLGMKKLKEEMEGVVKELAENNHILERFGSLTMDGGLRNVDCL
notes: source: E. coli BL21 (DE3), purified (Ni-NTA, size-exclusion chromatography); not shown: Trx, N-terminal, kept; His6, N-terminal, kept

Binder: B5
- Kd [6]: ~2.5 µM
- stoichiometry N [6]: 1.15
- fold increase of binding affinity against the wild-type OPTN [7]: ~43 fold
- Kd [8]: ~2.5 µM
- binding result [9]: binds

- binding result [10]: binds
- Kd [11]: ~0.72 µM
B6: NAP1 TBD (residues 215–254) (domain or fragment, human, UniProt Q9H6S1 215-254, looked up)
chain: SSDNMQHAYWELKREMSNLHLVTQVQAELLRKLKTSTAIK
notes: For the crystal it was made as a NAP1(215–254)-TEV site-TBK1 CTD fusion that was cut with 3C and TEV; also called NAP1(215–254); not shown: Trx-His6 (pET-32M) or GST (pET-GST), N-terminal, cleaved

Binder: B7
- stoichiometry N [6]: 0.58
